The text below walks through data of the supplement of paper PMC12042874.

± gives the uncertainty stated by the source.

This series in a line: amyloid nucleation score (Sup35N fusion, yeast selection) (log enrichment); library NNK1; higher = more nucleation; inactive = no reads after selection. A digest of the protocol: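 In psi-negative yeast, Sup35N fusions carrying peptides of 20 random codons were induced with 100 μM copper sulfate for 24 hours. The cells then grew 7 days at 30°C on medium lacking adenine and uracil, and plasmid inserts from input and output were Illumina-sequenced, excluding sequences with under 100 input reads. Nucleation score is the DiMSum log enrichment of output over input reads, centred on the mode score of non-aggregating sequences.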
NNQHDGYSIFILDRQPLRAM came in with an amyloid nucleation score of 0.488 ± 0.59.
As to NNRCPCYSILWNRWRNKVA, the amyloid nucleation score entry was “inactive”.
To NNSLKCCLFLMSNLKSSRVN belongs 6.08 ± 0.066.
Substance NNVAGCLEFHRYQGMCGRSM gave an amyloid nucleation score of 1.04 ± 0.36.
With NNYNYLYTYNMQNQKQFIFM the figure was 7.281 ± 0.066.
With NPCHKMFSRNPHLYMAAVKS the figure was 0.335 ± 0.96; with NPFYKT, 0.268 ± 0.37.
NPHCVSLKTRIPFVGGSKCG had an amyloid nucleation score of -0.748 ± 1.2.
For NPLMTTLATSDMWRNQFISG, the amyloid nucleation score amounted to 1.38 ± 0.41.
For the substance NPPWQCGVRHDHLWVTSYHS, the amyloid nucleation score was -0.481 ± 0.32.
With NPSNKCLSEPWQDHLLGAWR the figure was 0.758 ± 0.67; with NQCYYRAGLFRVDLFCLELA, “inactive”; with NQVENTWCMSLRLFSYSHTL, 7.548 ± 0.058.
NRFYYKARCRQVGHCT yielded an amyloid nucleation score of 0.743 ± 0.46.
To NRKAPFNQA belongs -1.09 ± 1.4; to NRKRFHGMNDASAAYFREVC, -1.33 ± 2.7.
NRLGLGPVSSICGR yielded an amyloid nucleation score of -0.339 ± 0.81.
To NRLKFSLV belongs -2.62 ± 2.7; to NRLNTTDWYSI, -0.342 ± 0.74.
With NRLRNGPNDRVVRATAPKGF the figure was 0.259 ± 0.4; with NRQSNSVVYNARQETFIRHL, 3.39 ± 0.14; with NRRCGGASSIRTGNRIWDDW, 2.22 ± 0.23.
To NRRDDNQCVSWIGVKAKVLS belongs 0.564 ± 0.43; to NRSLKCICRRSVGRRSQNLR, 0.57 ± 0.5; to NRTIFVVRHTDFGYLA, 0.661 ± 0.75.
In turn, NRYMWDFSIAGVGVRLWINS had an amyloid nucleation score of -0.896 ± 0.55.
With NSASYII the figure was -0.048 ± 0.24; with NSCTGSGGCSWEDKGNWCVK, 0.183 ± 0.28; with NSEKLPMHPRGHAGQAWVQS, 0.153 ± 0.45.
For the substance NSEMCWFFNMISSTLAHLLV, the amyloid nucleation score is 1.75 ± 0.31.
Substance NSFRAAHWSEMVPAELGRSV showed an amyloid nucleation score of -0.513 ± 0.41.
To NSFSDAYKIVYLHIYRSGGI belongs -0.448 ± 0.6.
To NSFVYQWFGYVSFKLFRCTV belongs 0.316 ± 0.26.
NSFWTLVFSGHPACWLTVFI displayed an amyloid nucleation score of -0.75 ± 0.59.
With NSGNHDSCKFFGLLVRQMVG the figure was 0.529 ± 0.46; with NSGRVNTLWFCLSDTMLVTS, “inactive”; with NSGVVRLFPYFMYRTAWLKS, 0.224 ± 0.41.
NSHHKKGHVKRAVRLLHYPV had an amyloid nucleation score of 0.799 ± 0.84.
Regarding NSINFFNMFVYWL, the amyloid nucleation score worked out at 6.26 ± 0.056.
To NSLCEFSMKMFTYNSMGGFI belongs 1.86 ± 0.26; to NSLLGYLYSYVVFYREHIVI, -0.326 ± 1.2; to NSMIVAHKLDCACPASAKDR, 4.94 ± 0.053.
With NSNCELGKVHFAV the figure was 0.501 ± 0.35; with NSRFKNFMSNTHVH, “inactive”; with NSRWSIFFASMCDIRLWCVV, 0.755 ± 0.84.
To NSVVRVIKRSWRTVVLLHDR belongs -0.621 ± 1.4.
NSVWLLTNVLKFGTNVSRHR registered an amyloid nucleation score of 2.57 ± 0.16.
For NSYWLRCILPM, the amyloid nucleation score was -0.065 ± 0.3.
For the substance NTCTMCGWICAFLRPVFCVV, the amyloid nucleation score is 0.745 ± 1.2.
The substance NTFYCCFLFFY had an amyloid nucleation score of 6.517 ± 0.044.
Consider NTGIS, for which the amyloid nucleation score is -1.22 ± 1.4.
With NTHSPSFGFAMIRSGDTEKF, the amyloid nucleation score entry was “inactive”.
With NTHTAWNRIGRTWRQNWTWG the figure was 0.061 ± 0.47; with NTKSSVSYYFFMGIIFFSEI, 0.355 ± 0.32; with NTLSISDSYVEYETWEVIPV, 1.62 ± 0.5.
To NTQTFEAFSKSFMDLIVRRF belongs -0.735 ± 1.2; to NTSDDYIDLRYNHKGEAFEG, “inactive”.
NTTATLMGHTQPIYSIYSVF gave an amyloid nucleation score of 1.11 ± 0.94.
In turn, NVDFTSYMLDMM returned an amyloid nucleation score of 0.042 ± 0.41.
Regarding NVILKDLQVYPEKAVSINRY, the amyloid nucleation score came out at 1.05 ± 0.32.
With NVIVKDLVLDNTFCVARVQA, the amyloid nucleation score was -0.639 ± 0.42.
With NVQVKWGQTRVTCWDYGGEH the figure was 0.467 ± 0.34.
With NVRRLIFIMLKLDAICYWSS the figure was -0.695 ± 1.1.
To NVVSYFHMAFGWCFNLW belongs 1.94 ± 0.26; to NVVWAYSMAFMTSAFSVNYP, “inactive”.
Regarding NVWNVFWLNN, the amyloid nucleation score result is “inactive”.
The substance NWELRRVTRKWRSGDTSLSD gave an amyloid nucleation score of -2.04 ± 2.4.
NWHPISVGSFYIVGLMRHRR displayed an amyloid nucleation score of 4.03 ± 0.11.
As for NWMCKHSVGP, the amyloid nucleation score was found to be 0.665 ± 0.72.
As to NYAARPHSRSLLGAYDCSWS, the amyloid nucleation score was found to be 0.731 ± 0.47.
With NYHLGCCNISMF the figure was 7.856 ± 0.047; with NYLGRVLFFYNWFDKQYRSK, 5.878 ± 0.048.
With NYMSMWTV the figure was 0.324 ± 0.9.
As to PACFSGCEVGFASDMCVLEL, the amyloid nucleation score came out at 0.947 ± 0.42.
With PAPLQIRNMSSNAKTR the entry was “inactive”; with PAVAGEWNARMGWEATRYKA, 0.669 ± 0.56.
Consider PAYGTNIVAIYLWH, for which the amyloid nucleation score came to 3.59 ± 0.093.
With PCAETLVRHIHAYLKWI the figure was 0.065 ± 1.2; with PCMFYWTVLGRLRTKPPSGV, -0.153 ± 0.44; with PCSKAFRAVNISEAKIDFGN, -0.416 ± 0.5.
With PCTFWAEVRINRWSYYARQR the figure was -0.856 ± 2.4; with PCWTNSLLKPPVGIR, -0.281 ± 1.1; with PDWCLMVLLCGLVCIYVDLN, 0.22 ± 1.1.
The substance PEGWYLTNCRAGRFSSR yielded an amyloid nucleation score of -0.222 ± 0.39.
With PELYSVDHFNGYAPNYCRCR the figure was -0.534 ± 0.43; with PERVVYANATAYRLLVKDAL, 0.247 ± 0.33; with PFGVVGDVFQSTLC, 0.371 ± 0.84.
In turn, PFILFQWPTLHRDYVHAQVL registered an amyloid nucleation score of 0.686 ± 1.1.
In the case of PFQRGIYHWLYILGLVVELP, the amyloid nucleation score entry is “inactive”.
To PFRGDGIGYISVGGWFVQDN belongs -1.51 ± 2.4; to PFSAWYNNNTLTYSIDCINF, 0.58 ± 0.19; to PFSYLMDLTIYVGKSLQSNE, 0.119 ± 0.35.
With PFVQRFCL the figure was 0.486 ± 0.49; with PFVRVLTLGYAGVWNGRGKP, 0.904 ± 0.57; with PFVYLVYCGNGNVFAAKYLS, 6.217 ± 0.059.
With PFWAGG the entry was “inactive”.
In the case of PGCIICRVMTEANSRCLVRA, the amyloid nucleation score came out at 0.141 ± 1.2.
To PGFYGPLIGFMWRCSARERC belongs 0.673 ± 0.37.
With PGKICSNDQVNVSAY the figure was -0.179 ± 0.49; with PGKRHGFMLRDFAMPKLSYH, -0.918 ± 0.59.
PGRFLGLNSMTALVWY yielded an amyloid nucleation score of 0.095 ± 0.37.
To PGRTLIVFFCVVVCQCEDNR belongs 1.44 ± 0.5; to PGVECACRVSNATNVDGLDL, -0.168 ± 0.5.
To PHVTGGSPCSKHSLRW belongs -0.716 ± 0.65; to PICANWLMHTVMINSSSGRG, 0.27 ± 0.32.
On to PICCLLQLLGDSGWMCCSAW, for which the amyloid nucleation score is 6.538 ± 0.061.
PIEHDEWLTVMVYCDGRLLA registered an amyloid nucleation score of -0.894 ± 2.4.
With PIHPRTLMG the figure was 0.117 ± 0.59.
As for PIKHCRRRNTDRRKTGMSQV, the amyloid nucleation score is -0.447 ± 0.62.
With PIYGFLWELRR the figure was 0.486 ± 0.51; with PLARRVSAHILVRMNYRNFM, -0.048 ± 0.37.
Take PLELPVVFIMSDFSFWRRAQ: the amyloid nucleation score was found to be 0.555 ± 0.53.
For PLEMGSHIGRL, the amyloid nucleation score was -1.54 ± 2.7.
PLFCNNWSVLEFERRLGDMH returned an amyloid nucleation score of 1.03 ± 0.24.
Substance PLFLVVTQMS yielded an amyloid nucleation score of 5.25 ± 0.073.
As for PLHCSVGRIRSGLMCLKLTC, the amyloid nucleation score was -0.17 ± 1.1.
For the substance PLLFKGYNAHRPNLVLTTML, the amyloid nucleation score was -0.143 ± 1.7.
Consider PLSWTNMKYKGSCVYFMVFF, for which the amyloid nucleation score was -2.14 ± 2.4.
With PLVKGIHSNPRTYTTMYYSY the figure was -1.93 ± 2.7; with PLYSYADEVVDGKGSCERNC, 0.946 ± 0.5; with PMRACHCCFGCTKSLAHDSN, 0.912 ± 0.53.
For PMSKV, the amyloid nucleation score result is “inactive”.
To PNAVNIIYDCAQLLFMRTMR belongs -0.188 ± 0.65; to PNFMMIWWVSTLRHNFTGLC, 2.19 ± 0.31.
Regarding PNSYASVHSNHKDIREAMYL, the amyloid nucleation score came out at 0.021 ± 0.44.
For the substance PPQLHRVEFLIVSGR, the amyloid nucleation score is -0.859 ± 1.4.
To PQGLTSSSMGLTSANHSAA belongs 0.637 ± 0.88.
In turn, PQVKTFGVVFVGGMCE gave an amyloid nucleation score of 0.216 ± 0.41.
With PREDRGLSWISGYYYYLVAG the figure was -0.341 ± 0.47; with PRSMRKNSYGLGSGVRDHVQ, -0.238 ± 0.56.
Regarding PRVIELARLVRLRKTKVYML, the amyloid nucleation score is -0.013 ± 0.24.
To PRVQRPPKVRTAELTTGPSQ belongs -0.423 ± 0.37; to PRVSRRPWLKGFNNVSNQQI, 0.193 ± 1.5.
The substance PSGTQCTAE had an amyloid nucleation score of -0.047 ± 0.65.
Turning to PSKPLGIIRLVSNQFPPSHK, the amyloid nucleation score came to 0.123 ± 0.29.
With PSRWRYYGSYGDLILICSGS the figure was -0.907 ± 0.79.
